Experimental data reported in patent publication US20230416411A1 (Hoffmann-La Roche, published 2023).
Numbering of substitutions follows the chain as printed.

How the values were obtained:
[1] = target: T1, EGFRvIII expressed on the cell surface (CHO-EGFRvIII, DK-MG, U87MG-EGFRvIII cells) (human, UniProt P00533 298-1210); assay: flow cytometry on U87MG-EGFRvIII cells, labelled anti-human Fc secondary antibody
T1 construct: also called EGFRvIII on cells
Protocol: (§1) Cells used for binding experiments were harvested, washed with PBS and resuspended in FACS buffer. The antibody staining was performed in a 96-well round bottom plate. Cells were harvested, counted and 100 000 to 200 000 cells were seeded per well. The plate was centrifuged for 4 min at 400×g and the supernatant was removed. The test antibodies were diluted in FACS buffer and 20 μl of the antibody solution were added to the cells for 30 min at 4° C. To remove unbound antibody the cells were washed twice with FACS buffer before addition of the diluted secondary antibody PE-conjugated AffiniPure F(ab′)2 Fragment goat anti-human IgG Fcg Fragment Specific (Jackson ImmunoResearch, #109-116-170 or #109-116-098). After 30 min incubation on 4° C. unbound secondary antibody was washed away. Before measurement the cells were resuspended in 200 μl FACS buffer and analyzed by flow cytometry using BD Canto II or BD FACS Fortessa.

[2] = target: T1, EGFRvIII expressed on the cell surface …; assay: flow cytometry on U87MG-EGFRvIII cells, IgG PGLALA
Protocol: as §1

[3] = target: TYRP1 on the primary melanoma cell line M150543 (human, UniProt P17643 25-537); assay: cell-based or functional assay

B1: EGFRvIII antibody P063.056, human IgG1 PGLALA (antibody, V domains shown)
VH: EVQLVQSGAEVKKPGESLKISCKGSGYSFDSYWIAWVRQMPGKGLEWMGVIHPYDSDTRYSPSFQGQVTISADKSISTAYLQWSSLKASDTAMYYCARVSRSSYAFDYWGQGTLVTVSS
VL: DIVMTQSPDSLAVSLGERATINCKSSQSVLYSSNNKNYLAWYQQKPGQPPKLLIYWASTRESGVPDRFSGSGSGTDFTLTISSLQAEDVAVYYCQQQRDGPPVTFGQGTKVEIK
notes: Anti-EGFRvIII PGLALA IgG
[1]
  EC50 (read off the curve): ~4 nM
[2]
  EC50 (read off the curve): ~5 nM

B2: EGFRvIII TCB P056.021 (CD3orig) (bispecific antibody, V domains shown)
VH 1: B1 VH
VL 1: not shown
VH 2: not shown
VL 2: QAVVTQEPSLTVSPGGTVTLTCGSSTGAVTTSNYANWVQEKPGQAFRGLIGGTNKRAPGTPARFSGSLLGGKAALTLSGAQPEDEAEYYCALWYSNLWVFGGGTKLTVL
notes: also called parental EGFRvIII TCB P056.021; P056.021 EGFRvIII TCB with CD3orig
[1]
  EC50 (read off the curve): ~5 nM

B3: TYRP1 TCB CD3opt (bispecific antibody, human IgG1, kappa, L234A L235A)
heavy 1: not shown
heavy 2: QVQLVQSGAEVKKPGASVKVSCKASGFNIKDYFLHWVRQAPGQGLEWMGWINPDNGNTVYAQKFQGRVTMTADTSTSTVYMELSSLRSEDTAVYYCTRRDYTYEKAALDYWGQGTLVTVSSASTKGPSVFPLAPSSKSTSGGTAALGCLVEDYFPEPVTVSWNSGALTSGVHTFPAVLQSSGLYSLSSVVTVPSSSLGTQTYICNVNHKPSNTKVDEKVEPKSCDKTHTCPPCPAPEAAGGPSVFLFPPKPKDTLMISRTPEVTCVVVDVSHEDPEVKFNWYVDGVEVHNAKTKPREEQYNSTYRVVSVLTVLHQDWLNGKEYKCKVSNKALGAPIEKTISKAKGQPREPQVCTLPPSRDELTKNQVSLSCAVKGFYPSDIAVEWESNGQPENNYKTTPPVLDSDGSFFLVSKLTVDKSRWQQGNVFSCSVMHEALHNHYTQKSLSLSP
light 1: DIQMTQSPSSLSASVGDRVTITCRASGNIYNYLAWYQQKPGKVPKLLIYDAKTLADGVPSRFSGSGSGTDFTLTISSLQPEDVATYYCQHFWSLPFTFGQGTKLEIKRTVAAPSVFIFPPSDRKLKSGTASVVCLLNNFYPREAKVQWKVDNALQSGNSQESVTEQDSKDSTYSLSSTLTLSKADYEKHKVYACEVTHQGLSSPVTKSFNRGEC
light 2: EVQLLESGGGLVQPGGSLRLSCAASGFQFSSYAMNWVRQAPGKGLEWVSRIRSKYNNYATYYADSVKGRFTISRDDSKNTLYLQMNSLRAEDTAVYYCVRHTTFPSSYVSYYGYWGQGTLVTVSSASVAAPSVFIFPPSDEQLKSGTASVVCLLNNFYPREAKVQWKVDNALQSGNSQESVTEQDSKDSTYSLSSTLTLSKADYEKHKVYACEVTHQGLSSPVTKSFNRGEC
[3]
  EC50 of tumor cell killing at 48 h, PBMC donor 1: 0.31 nM
  EC50 of tumor cell killing at 48 h, PBMC donor 2: 0.03 nM
  EC50 of tumor cell killing at 48 h, PBMC donor 3: 0.08 nM

B4: EGFRvIII TCB CD3orig (EGFRvIII binder P063.056) (bispecific antibody, human IgG1, kappa, L234A L235A)
heavy 1: not shown
heavy 2: EVQLVQSGAEVKKPGESLKISCKGSGYSFDSYWIAWVRQMPGKGLEWMGVIHPYDSDTRYSPSFQGQVTISADKSISTAYLQWSSLKASDTAMYYCARVSRSSYAFDYWGQGTLVTVSSASTKGPSVFPLAPSSKSTSGGTAALGCLVEDYFPEPVTVSWNSGALTSGVHTFPAVLQSSGLYSLSSVVTVPSSSLGTQTYICNVNHKPSNTKVDEKVEPKSCDKTHTCPPCPAPEAAGGPSVFLFPPKPKDTLMISRTPEVTCVVVDVSHEDPEVKFNWYVDGVEVHNAKTKPREEQYNSTYRVVSVLTVLHQDWLNGKEYKCKVSNKALGAPIEKTISKAKGQPREPQVCTLPPSRDELTKNQVSLSCAVKGFYPSDIAVEWESNGQPENNYKTTPPVLDSDGSFFLVSKLTVDKSRWQQGNVFSCSVMHEALHNHYTQKSLSLSP
light 1: not shown
light 2: B3 light 2 with Q28T, S31T, T102G, T103N, P105G, S106N, Y111W, Y112F, G113A
notes: 2+1 IgG CrossFab, inverted, with charge modifications; also called EGFRvIII TCB P063.056 with CD3orig
[1]
  EC50 (read off the curve): ~10 nM

B5: TYRP1 TCB CD3orig (bispecific antibody, human IgG1, kappa, L234A L235A)
heavy 1: not shown
heavy 2: B3 heavy 2
light 1: B3 light 1
light 2: B3 light 2 with Q28T, S31T, T102G, T103N, P105G, S106N, Y111W, Y112F, G113A
[3]
  EC50 of tumor cell killing at 48 h, PBMC donor 1: 0.44 nM
  EC50 of tumor cell killing at 48 h, PBMC donor 2: 0.05 nM
  EC50 of tumor cell killing at 48 h, PBMC donor 3: 0.14 nM
